According to patent US11795460B2, “Compositions and methods for TTR gene editing and treating ATTR amyloidosis” (Intellia Therapeutics, Inc., priority 2017, dated 2023):
Strand notation (5' to 3'): a small letter for the sugar, then the base; units joined by * are phosphorothioate-linked, units joined directly phosphodiester-linked; [ ] holds rarer units or linkages, { } end groups; capitals alone tell only the bases. m = 2'-O-methyl; r = 2'-OH (RNA)

Tests used:
TTR [1] = assay: TTR editing in primary cyno hepatocytes electroporated with Spy Cas9 protein and sgRNAs (Tables 14, 15); format: cell-based, cynomolgus monkey
Protocol: (§1) Primary liver hepatocytes. Primary human liver hepatocytes (PHH) and primary cynomolgus liver hepatocytes (PCH) (Gibco) were cultured per the manufacturer's protocol (Invitrogen, protocol 11.28.2012). In brief, the cells were thawed and resuspended in hepatocyte thawing medium with supplements (Gibco, Cat. CM7000) followed by centrifugation at 100 g for 10 minutes for human and 80 g for 4 minutes for cyno. The supernatant was discarded and the pelleted cells resuspended in hepatocyte plating medium plus supplement pack (Invitrogen, Cat. A1217601 and CM3000). Cells were counted and plated on Bio-coat collagen I coated 96-well plates (ThermoFisher, Cat. 877272) at a density of 33,000 cells/well for human or 60,000 cells/well for cyno (or 65,000 cells/well when assaying effects on TTR protein, described further below). Plated cells were allowed to settle and adhere for 6 or 24 hours in a tissue culture incubator at 37° C. and 5% CO2 atmosphere. After incubation cells were checked for monolayer formation and media was replaced with hepatocyte culture medium with serum-free supplement pack (Invitrogen, Cat. A1217601 and CM4000).
[…] formation was performed prior to electroporation or transfection of Spy Cas9 protein loaded with guide RNAs (RNPs) onto cells. For dual guide (dgRNAs), individual crRNA and trRNA was pre-annealed by mixing equivalent amounts of reagent and incubating at 95° C. for 2 min and cooling to room temperature. Single guide (sgRNAs) were boiled at 95° C. for 2 min and cooling to room temperature. The boiled dgRNA or sgRNA was incubated with Spy Cas9 protein in Optimem for 10 minutes at room temperature to form a ribonucleoprotein (RNP) complex.
For RNP electroporation into primary human and cyno hepatocytes, the cells are thawed and resuspended in Lonza electroporation Primary Cell P3 buffer at a concentration of 2500 cells per μL for human hepatocytes and 3500 cells per μL for cyno hepatocytes. A volume of 20 μL of resuspended cells and 5 μL of RNP are mixed together per guide. 20 μL of the mixture is placed into a Lonza electroporation plate. The cells were electroporated using the Lonza nucleofector with the preset protocol EX-147. Post electroporation, the cells are transferred into a Biocoat plate containing pre-warmed maintenance media and placed in a tissue culture incubator at 37° C. and 5% CO2.
Transfected cells were harvested post-transfection at 24, 48, or 72 hours. The genomic DNA was extracted from each well of a 96-well plate using 50 μL/well BuccalAmp DNA Extraction solution (Epicentre, Cat. QE09050) per manufacturer's protocol. All DNA samples were subjected to PCR and subsequent NGS analyses, as described herein.
(§2) To quantitatively determine the efficiency of editing at the target location in the genome, sequencing was utilized to identify the presence of insertions and deletions introduced by gene editing.
(§3) Primers were designed around the target site within the gene of interest (e.g. TTR), and the genomic area of interest was amplified.
(§4) Additional PCR was performed per the manufacturer's protocols (Illumina) to add chemistry for sequencing. The amplicons were sequenced on an Illumina MiSeq instrument. The reads were aligned to a reference genome (e.g., the human reference genome (hg38), the cynomologus reference genome (mf5), the rat reference genome (rn6), or the mouse reference genome (mm10)) after eliminating those having low quality scores. The resulting files containing the reads were mapped to the reference genome (BAM files), where reads that overlapped the target region of interest were selected and the number of wild type reads versus the number of reads which contain an insertion, substitution, or deletion was calculated.
The editing percentage (e.g., the “editing efficiency” or “percent editing” or “indel frequency”) is defined as the total number of sequence reads with insertions/deletions (“indels”) or substitutions over the total number of sequence reads, including wild type. […]

TTR [2] = assay: EC50 and maximum editing in primary human hepatocytes treated with LNP formulated U-depleted Spy Cas9 mRNA and sgRNAs (Tables 19, 21); format: cell-based; set-up: key: % of sequence reads with indels or substitutions over total reads; details: Table 21, LNP with U-depleted Spy Cas9 mRNA and cyno specific sgRNAs, dose response
Protocol: as §1
For LNPs prepared using the cross-flow technique, the LNPs were formed by impinging jet mixing of the lipid in ethanol with two volumes of RNA solutions and one volume of water. The lipid in ethanol is mixed through a mixing cross with the two volumes of RNA solution. A fourth stream of water is mixed with the outlet stream of the cross through an inline tee. (See WO2016010840 FIG. 2.) The LNPs were held for 1 hour at room temperature, and further diluted with water (approximately 1:1 v/v). Diluted LNPs were concentrated using tangential flow filtration on a flat sheet cartridge (Sartorius, 100 kD MWCO) and then buffer exchanged by diafiltration into 50 mM Tris, 45 mM NaCl, 5% (w/v) sucrose, pH 7.5 (TSS). Alternatively, the final buffer exchange into TSS was completed with PD-10 desalting columns (GE). If required, formulations were concentrated by centrifugation with Amicon 100 kDa centrifugal filters (Millipore). The resulting mixture was then filtered using a 0.2 μm sterile filter. The final LNP was stored at 4° C. or −80° C. until further use.
as §2, §3, §4
The editing percentage (e.g., the “editing efficiency” or “percent editing” or “indel frequency”) is defined as the total number of sequence reads with insertions/deletions (“indels”) or substitutions over the total number of sequence reads, including wild type.
Lipid nanoparticle formulations of modified sgRNAs targeting human TTR and the cyno matched sgRNA sequences were tested on primary human hepatocytes and primary cyno hepatocytes in a dose response curve. Primary human and cyno hepatocytes were plated as described in Example 1. Both cell lines were incubated at 37° C., 5% CO2 for 24 hours prior to treatment with LNPs. […]

[3] = test system: off-target integration sites; assay: Off-target oligo insertion based assay in primary human hepatocytes (Table 30); format: cell-based; details: TTR sgRNAs in PHH, 100 ng Cas9 mRNA, 25 nM sgRNA, 12.5 nM donor oligo
Protocol: Off-target analysis of sgRNAs targeting TTR was performed in primary human hepatocytes (PHH) as described in Example 5, with the following modifications. PHH were plated at a density of 33,000 cells per well on collagen-coated 96-well plates as described in Example 1. Twenty-four hours post plating, cells were washed with media and transfected using Lipofectamine RNAiMAX (ThermoFisher, Cat. 13778150) as described in Example 1. Cells were transfected with a lipoplex containing 100 ng Cas9 mRNA, immediately followed by the addition of another lipoplex containing 25 nM of the sgRNA and 12.5 nM of the donor oligo (0.3 μL/well). Cells were lysed 48 hours post-transfection and gDNA was extracted and analyzed as further described in Example 5. The data is graphically represented in FIG. 20.
Fewer sites were detected in PHH for every guide tested as compared to the HekCas9 cell line, with no unique sites detected in PHH alone.

[4] = Table 15, primary cyno hepatocytes electroporated with Spy Cas9 protein (RNP) and cyno specific sgRNAs
[5] = Table 14, primary cyno hepatocytes electroporated with Spy Cas9 protein (RNP) and sgRNAs

Row | Molecule | Avg % Deletion (TTR [1]; [5]) [%] | Avg % Edit (TTR [1]; [5]) [%] | Avg % Insert (TTR [1]; [5]) [%] | # Sites in PHH [3] | further results
1 | G000502: TTR Cyno specific sgRNA modified sequence, SEQ ID No. 114; guide sequence of CR000689; cross homologous between mouse and cyno (nucleic acid) guide: mA*mC*mA*rCrArArArUrArCrCrArGrUrCrCrArGrCrGrGrUrUrUrUrArGrAmGmCmUmAmGmAmAmAmUmAmGmCrArArGrUrUrArArArArUrArArGrGrCrUrArGrUrCrCrGrUrUrArUrCrAmAmCmUmUmGmAmAmAmAmAmGmUmGmGmCmAmCmCmGmAmGmUmCmGmGmUmGmCmU*mU*mU*mU |  |  |  |  | Avg % Deletion (TTR [1]; [4]): 81.27%; Avg % Edit (TTR [1]; [4]): 95.10%; Avg % Insert (TTR [1]; [4]): 13.97%; Max Editing (TTR [2]): 91.50
2 | G000486: TTR sgRNA modified sequence, Human, SEQ ID No. 93; guide sequence of CR003339 (nucleic acid) guide: mA*mC*mA*rCrArArArUrArCrCrArGrUrCrCrArGrCrArGrUrUrUrUrArGrAmGmCmUmAmGmAmAmAmUmAmGmCrArArGrUrUrArArArArUrArArGrGrCrUrArGrUrCrCrGrUrUrArUrCrAmAmCmUmUmGmAmAmAmAmAmGmUmGmGmCmAmCmCmGmAmGmUmCmGmGmUmGmCmU*mU*mU*mU | 68.07 | 79.90 | 11.90 | 0 | 
3 | G000498: TTR sgRNA modified sequence, Human, SEQ ID No. 105; guide sequence of CR003359 (nucleic acid) guide: mA*mG*mU*rGrArGrUrCrUrGrGrArGrArGrCrUrGrCrArGrUrUrUrUrArGrAmGmCmUmAmGmAmAmAmUmAmGmCrArArGrUrUrArArArArUrArArGrGrCrUrArGrUrCrCrGrUrUrArUrCrAmAmCmUmUmGmAmAmAmAmAmGmUmGmGmCmAmCmCmGmAmGmUmCmGmGmUmGmCmU*mU*mU*mU | 22.87 | 91.37 | 68.50 | 19 | 
4 | G000492: TTR sgRNA modified sequence, Human, SEQ ID No. 99; guide sequence of CR003342 (nucleic acid) guide: mC*mU*mU*rCrUrCrUrArCrArCrCrCrArGrGrGrCrArCrGrUrUrUrUrArGrAmGmCmUmAmGmAmAmAmUmAmGmCrArArGrUrUrArArArArUrArArGrGrCrUrArGrUrCrCrGrUrUrArUrCrAmAmCmUmUmGmAmAmAmAmAmGmUmGmGmCmAmCmCmGmAmGmUmCmGmGmUmGmCmU*mU*mU*mU |  |  |  | 5 | 
5 | G000497: TTR sgRNA modified sequence, Human, SEQ ID No. 104; guide sequence of CR003335 (nucleic acid) guide: mC*mU*mG*rCrUrCrCrUrCrCrUrCrUrGrCrCrUrUrGrCrGrUrUrUrUrArGrAmGmCmUmAmGmAmAmAmUmAmGmCrArArGrUrUrArArArArUrArArGrGrCrUrArGrUrCrCrGrUrUrArUrCrAmAmCmUmUmGmAmAmAmAmAmGmUmGmGmCmAmCmCmGmAmGmUmCmGmGmUmGmCmU*mU*mU*mU |  |  |  | 3 | 
6 | G000501: TTR sgRNA modified sequence, Human, SEQ ID No. 108; guide sequence of CR005300 (nucleic acid) guide: mU*mC*mA*rCrArGrArArArCrArCrUrCrArCrCrGrUrArGrUrUrUrUrArGrAmGmCmUmAmGmAmAmAmUmAmGmCrArArGrUrUrArArArArUrArArGrGrCrUrArGrUrCrCrGrUrUrArUrCrAmAmCmUmUmGmAmAmAmAmAmGmUmGmGmCmAmCmCmGmAmGmUmCmGmGmUmGmCmU*mU*mU*mU |  |  |  | 0 | 
7 | G000487: TTR sgRNA modified sequence, Human, SEQ ID No. 94; guide sequence of CR003357 (nucleic acid) guide: mU*mU*mC*rUrUrUrGrGrCrArArCrUrUrArCrCrCrArGrGrUrUrUrUrArGrAmGmCmUmAmGmAmAmAmUmAmGmCrArArGrUrUrArArArArUrArArGrGrCrUrArGrUrCrCrGrUrUrArUrCrAmAmCmUmUmGmAmAmAmAmAmGmUmGmGmCmAmCmCmGmAmGmUmCmGmGmUmGmCmU*mU*mU*mU |  |  |  | 0 | 
8 | G000495: TTR sgRNA modified sequence, Human, SEQ ID No. 102; guide sequence of CR003343 (nucleic acid) guide: mC*mA*mG*rArGrGrArCrArCrUrUrGrGrArUrUrCrArCrGrUrUrUrUrArGrAmGmCmUmAmGmAmAmAmUmAmGmCrArArGrUrUrArArArArUrArArGrGrCrUrArGrUrCrCrGrUrUrArUrCrAmAmCmUmUmGmAmAmAmAmAmGmUmGmGmCmAmCmCmGmAmGmUmCmGmGmUmGmCmU*mU*mU*mU |  |  |  | 1 | 
9 | G000496: TTR sgRNA modified sequence, Human, SEQ ID No. 103; guide sequence of CR005304 (nucleic acid) guide: mG*mG*mC*rCrGrUrGrCrArUrGrUrGrUrUrCrArGrArArGrUrUrUrUrArGrAmGmCmUmAmGmAmAmAmUmAmGmCrArArGrUrUrArArArArUrArArGrGrCrUrArGrUrCrCrGrUrUrArUrCrAmAmCmUmUmGmAmAmAmAmAmGmUmGmGmCmAmCmCmGmAmGmUmCmGmGmUmGmCmU*mU*mU*mU |  |  |  | 0 | 
10 | G000567: TTR sgRNA modified sequence, Human, SEQ ID No. 109; guide sequence of CR003352 (nucleic acid) guide: mG*mA*mA*rArGrGrCrUrGrCrUrGrArUrGrArCrArCrCrGrUrUrUrUrArGrAmGmCmUmAmGmAmAmAmUmAmGmCrArArGrUrUrArArArArUrArArGrGrCrUrArGrUrCrCrGrUrUrArUrCrAmAmCmUmUmGmAmAmAmAmAmGmUmGmGmCmAmCmCmGmAmGmUmCmGmGmUmGmCmU*mU*mU*mU |  |  |  | 0 | 
11 | G000491: TTR sgRNA modified sequence, Human, SEQ ID No. 98; guide sequence of CR003338 (nucleic acid) guide: mA*mU*mA*rCrCrArGrUrCrCrArGrCrArArGrGrCrArGrGrUrUrUrUrArGrAmGmCmUmAmGmAmAmAmUmAmGmCrArArGrUrUrArArArArUrArArGrGrCrUrArGrUrCrCrGrUrUrArUrCrAmAmCmUmUmGmAmAmAmAmAmGmUmGmGmCmAmCmCmGmAmGmUmCmGmGmUmGmCmU*mU*mU*mU | 1.90 | 66.20 | 64.37 | 7 | 
12 | G000485: TTR sgRNA modified sequence, Human, SEQ ID No. 92; guide sequence of CR003336 (nucleic acid) guide: mC*mC*mU*rCrCrUrCrUrGrCrCrUrUrGrCrUrGrGrArCrGrUrUrUrUrArGrAmGmCmUmAmGmAmAmAmUmAmGmCrArArGrUrUrArArArArUrArArGrGrCrUrArGrUrCrCrGrUrUrArUrCrAmAmCmUmUmGmAmAmAmAmAmGmUmGmGmCmAmCmCmGmAmGmUmCmGmGmUmGmCmU*mU*mU*mU | 1.07 | 22.93 | 22.00 | 3 | 
